From US20260130973A1, “COMPOSITIONS AND METHODS FOR DEGRADATION OF LIPOFUSCIN CYCLORETINAL BY MSP1” (THE TEXAS A&M UNIVERSITY SYSTEM, priority 2022, published 2026) come the findings set out here.

Broadly, the Km is the concentration of substrate that gives half-maximal velocity. For orientation: kcat means the number of substrate molecules converted per active site and unit of time at saturation. As a reminder, the kcat/Km is the turnover number divided by the Michaelis constant.

Format in all cases: biochemical, Marasmius scorodonius
Substrate in data set [1]: CC(C=CC1=C(C)CCCC1(C)C)=CC=CC1=CC=C(C=O)C(C)(C=CC=C(C)C=CC2=C(C)CCCC2(C)C)C1
Nature of the data set: MsP1 H365F variant-catalyzed degradation of cycloretinal, steady-state enzyme kinetics. The note with it: other: H365F, PBS pH 7.4, H2O2, 430 nm, mean and 95% confidence limits. The protocol:
(§1) The gene encoding Marasmius scorodonius extracellular peroxidase MsP1 (UniProtKB, B0BK71) and its R388L variant were chemically synthesized with codon optimization for E. coli, having an optimized sequence length 1539 bp cloned into pUC57 vector with a GC content of 54.67% (SEQ ID NO: 5).
(§2) MsP1 mutants were generated using the Agilent mutagenesis kit (Quick change II site directed mutagenesis kit, catalog number: 200523) and primers of Table 1. Primer annealing was carried out at 55° C. for 60 seconds followed by a polymerization step carried out at 68° C. for 5 minutes. A total of 16 cycles were carried out. After PCR amplification DpnI digestion was performed by adding 1.5 μL DpnI to PCR amplification mixture incubating for 4 hours at 37° C. The resulting mixture was cleaned using resin provided in the kit and transformed into XL1 Blue electrocompetent cells. The resulting clones were screened and sequenced to confirm mutagenesis.
(§3) Active site residues were selected based on multiple sequence alignment with homologous DyPs and protein modelling, His 365, Asp 228, and Arg 388 were identified as amino acids that are critical to MsP1 activity. […] This means that wtMsP1 has greater substrate affinity for cycloretinal, compared with D228A and R388L variants, and reaches half maximal velocity at lower substrate concentration. […] The greater affinity observed for the phenylalanine variant likely signifies that cycloretinal can dock with greater affinity in the active site since the iron porphyrin heme cofactor would no longer be covalently bound at residue 365. Therefore, the residues involved in MsP1 catalysis are D228, H365, and R388 (FIG. 10).

Substrate in data set [2]: CC(C=CC1=C(C)CCCC1(C)C)=CC=CC1=CC=C(C=O)C(C)(C=CC=C(C)C=CC2=C(C)CCCC2(C)C)C1
The data set can be described thus: MsP1 D228A variant-catalyzed degradation of cycloretinal, steady-state enzyme kinetics. The note with it: other: D228A, PBS pH 7.4, H2O2, 430 nm, mean and 95% confidence limits. The protocol: as §1, §2, §3

Substrate in data set [3]: CC(C=CC1=C(C)CCCC1(C)C)=CC=CC1=CC=C(C=O)C(C)(C=CC=C(C)C=CC2=C(C)CCCC2(C)C)C1
Nature of the data set: MsP1 R388L variant-catalyzed degradation of cycloretinal, steady-state enzyme kinetics. Particulars: other: R388L, PBS pH 7.4, H2O2, 430 nm, mean and 95% confidence limits. How it is done:
as §1, §2, §3

Substrate in data set [4]: CC(C=CC1=C(C)CCCC1(C)C)=CC=CC1=CC=C(C=O)C(C)(C=CC=C(C)C=CC2=C(C)CCCC2(C)C)C1
The data set can be described thus: MsP1-catalyzed degradation of cycloretinal, steady-state enzyme kinetics (decrease in absorbance at 430 nm). The note with it: other: wtMsP1, PBS pH 7.4, H2O2, 430 nm, mean and 95% confidence limits.
Excerpt: as §1

Residue numbers refer to the chain shown, from its start. Names may count otherwise.

B1: Marasmius scorodonius peroxidase MsP1 variant H365F (parent SEQ ID NO: 1) (Mycetinis scorodonius; H365F) (protein)
chain: ASSSAGLNLTDIQGDILIGMKKNKELFFFFSITDAATFKAKLGSDILELITSTNQLLAVATQPITAVNVAFSSTGLKALGITDDLKDPVFEAGMLSNAVSDLSDPGTGNWVPGFVGTSVHGVFLLASDTIDNVNTELANIQTILNGSITEIHRLQGEARPGDQQGHEHFGFMDGISNPAVDGFTPPAEIRPGQALIPPGIMLLGEANDTFQNDRPPWAKDGSFLVFRQMQQRAPEFNKFLQDHALNMPNMTSEQGADLLGARIVGRWKSDAPIDLTPLVDDPVLAADNQRNNNFDFSDATNQTRCPFSAFIRKANPRGDLGGINKFPNQHIIRAGIPYGPEVTDAEKASNSSSTDPSLERGLAFVAYQSNIQNGFVFLQKNWVDNTNFFRPGTGVDPLIGTNSRNSGTDAPNTPRVVSGLDPNNATSTIEIGIDFVVSRGGEYFFSPSLSAIRTVLSV
notes: site-directed mutant
Take B1: in data set [1], the Km is 906 ± 26 µM, the kcat is 0.142 ± 0.0031 s⁻¹ and the kcat/Km was determined as 156 ± 8 M⁻¹ s⁻¹.

B2: Marasmius scorodonius peroxidase MsP1 variant D228A (parent SEQ ID NO: 1) (Mycetinis scorodonius; D228A) (protein)
chain: B1 chain with D173A, F310H
notes: site-directed mutant
B2: in data set [2], the Km is 4230 ± 82 µM, the kcat turned out to be 0.388 ± 0.0073 s⁻¹ and the kcat/Km came to 91.6 ± 3.5 M⁻¹ s⁻¹.

B3: Marasmius scorodonius peroxidase MsP1 variant R388L (parent SEQ ID NO: 1) (Mycetinis scorodonius; R388L) (protein)
chain: B1 chain with F310H, R333L
notes: R388L variant gene synthesized
B3: in data set [3], the Km turned out to be 1140 ± 11 µM, the kcat worked out at 0.0218 ± 0.00018 s⁻¹ and the kcat/Km was 19.2 ± 0.3 M⁻¹ s⁻¹.

B4: Marasmius scorodonius peroxidase MsP1, wild type (wtMsP1), SEQ ID NO: 1 (Mycetinis scorodonius) (protein)
chain: B1 chain with F310H
notes: wild type
Turning to B4, in data set [4], the Km came out at 845 ± 11 µM, the kcat is 0.229 ± 0.0024 s⁻¹ and the kcat/Km was 271 ± 6.2 M⁻¹ s⁻¹.
